# Experimental data published in US20150355199A1 (ROCHE DIAGNOSTICS OPERATIONS, published 2015).
# T1: CFHR2-GS-Avi-GS-His8 (human)
# T1 construct: Tagged recombinant protein from HEK293 cells; also called recombinant CFHR2
# T1 chain: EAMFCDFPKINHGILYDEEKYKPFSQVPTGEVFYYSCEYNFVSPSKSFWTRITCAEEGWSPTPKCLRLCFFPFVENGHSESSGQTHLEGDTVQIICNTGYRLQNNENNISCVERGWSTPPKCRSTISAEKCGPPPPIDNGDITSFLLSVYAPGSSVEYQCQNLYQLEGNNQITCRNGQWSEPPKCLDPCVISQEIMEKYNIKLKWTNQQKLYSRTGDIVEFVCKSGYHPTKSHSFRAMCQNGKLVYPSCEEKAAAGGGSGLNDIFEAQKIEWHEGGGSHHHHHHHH
# T2: recombinant CFHR1-1-5 (tag-less, full-length mature human complement factor H-related protein 1) (human, UniProt Q03591 19-330)
# T2 construct: also called recCFHR1
# T2 sequence: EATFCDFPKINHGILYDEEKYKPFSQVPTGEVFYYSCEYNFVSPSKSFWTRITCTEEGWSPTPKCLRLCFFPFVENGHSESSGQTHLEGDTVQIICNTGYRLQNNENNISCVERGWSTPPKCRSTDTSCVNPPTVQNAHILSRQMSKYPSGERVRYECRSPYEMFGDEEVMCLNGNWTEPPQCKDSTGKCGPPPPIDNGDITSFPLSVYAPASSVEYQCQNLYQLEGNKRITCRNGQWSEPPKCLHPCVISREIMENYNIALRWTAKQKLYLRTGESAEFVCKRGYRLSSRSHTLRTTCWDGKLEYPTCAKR
# T3: CFHR4-GS-Avi-GS-His8 (CFHR4 Variant B) (human)
# T3 construct: Tagged recombinant protein from HEK293 cells; also called CFHR4B; recombinant CFHR4B
# T3 chain: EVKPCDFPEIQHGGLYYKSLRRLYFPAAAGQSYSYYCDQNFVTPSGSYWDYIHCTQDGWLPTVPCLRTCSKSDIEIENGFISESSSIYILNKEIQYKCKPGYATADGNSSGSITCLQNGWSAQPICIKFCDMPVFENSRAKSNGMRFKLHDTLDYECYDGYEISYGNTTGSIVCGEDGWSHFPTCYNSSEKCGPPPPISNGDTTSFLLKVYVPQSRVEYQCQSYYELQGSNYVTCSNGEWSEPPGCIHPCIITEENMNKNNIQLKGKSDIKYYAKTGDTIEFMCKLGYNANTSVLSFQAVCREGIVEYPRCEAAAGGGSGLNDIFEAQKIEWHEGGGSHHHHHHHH
# T4: CFHR3-GS-Avi-GS-His8 (human, UniProt Q02985 19-330)
# T4 construct: Tagged recombinant protein from HEK293 cells; also called recombinant CFHR3
# T4 sequence: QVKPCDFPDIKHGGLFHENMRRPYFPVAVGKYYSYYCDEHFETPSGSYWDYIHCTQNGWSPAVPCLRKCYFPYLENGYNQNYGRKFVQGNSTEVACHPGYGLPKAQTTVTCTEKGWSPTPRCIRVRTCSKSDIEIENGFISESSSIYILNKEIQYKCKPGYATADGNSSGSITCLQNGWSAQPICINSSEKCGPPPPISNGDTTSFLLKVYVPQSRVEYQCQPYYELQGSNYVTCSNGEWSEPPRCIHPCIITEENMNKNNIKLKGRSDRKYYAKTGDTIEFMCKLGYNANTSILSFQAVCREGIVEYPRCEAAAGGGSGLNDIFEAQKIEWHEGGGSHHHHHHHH
# T5: CFHR5-GS-Avi-GS-His8 (human, UniProt Q9BXR6 19-569)
# T5 construct: Tagged recombinant protein from HEK293 cells; also called recombinant CFHR5
# T5 sequence: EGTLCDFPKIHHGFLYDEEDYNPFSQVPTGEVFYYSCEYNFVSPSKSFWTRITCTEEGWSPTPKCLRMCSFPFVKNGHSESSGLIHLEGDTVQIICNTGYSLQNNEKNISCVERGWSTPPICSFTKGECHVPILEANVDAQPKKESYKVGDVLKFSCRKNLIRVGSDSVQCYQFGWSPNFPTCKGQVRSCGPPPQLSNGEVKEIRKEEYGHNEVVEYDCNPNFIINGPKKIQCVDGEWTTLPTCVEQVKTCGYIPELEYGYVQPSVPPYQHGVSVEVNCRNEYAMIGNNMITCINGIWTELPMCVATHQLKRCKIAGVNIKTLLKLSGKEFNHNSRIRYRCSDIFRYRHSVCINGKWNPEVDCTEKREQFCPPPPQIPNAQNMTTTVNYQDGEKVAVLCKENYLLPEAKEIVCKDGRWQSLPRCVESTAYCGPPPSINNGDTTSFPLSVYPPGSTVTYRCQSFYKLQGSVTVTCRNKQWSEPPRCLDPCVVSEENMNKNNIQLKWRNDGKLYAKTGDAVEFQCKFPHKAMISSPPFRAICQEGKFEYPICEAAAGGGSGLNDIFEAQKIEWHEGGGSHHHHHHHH
# Tests used:
# CFHR2-GS-Avi-GS-His8 [1] = target: T1, CFHR2-GS-Avi-GS-His8; assay: SPR (BiaCore), antibody captured by rabbit anti-mouse IgG on CM5 chip, antigen in solution
# Description: (§1) The antibodies MAB<CFH/CFHR1>M-L20/3, MAB<CFHR1>M-442127, MAB<CFHR1>M-4.1.3 and MAB<CFHR1>M-5.1.5 were analyzed on the BiaCore. The chip CM5 coated with a rabbit anti-Mouse IgG was used to bind the purified monoclonal mouse antibodies. In the next step native CFH or the recombinant CFHR1, CFHR2, CFHR3, CFHR4B or CFHR5 proteins according to SEQ ID No.: 9 to 13 were added to determine the binding affinities of the different antibodies.
# [2] = target: T2, recombinant CFHR1-1-5 (tag-less, …); assay: as above
# Description: as §1
# CFHL1-GS-Avi-GS-His8 = target: T6, CFHL1-GS-Avi-GS-His8 (human, UniProt P08603 19-445); assay: SPR (BiaCore), antibody captured by rabbit anti-mouse IgG on CM5 chip; n.d. = not detectable
# T6 construct: also called complement factor H isoform 2
# Description: as §1
# [3] = target: T7, native human complement factor H (CFH) (human, UniProt P08603 19-1231); assay: as above
# T7 construct: Native CFH; also called native CFH; serum-purified CFH
# Description: as §1
# [4] = target: T3, CFHR4-GS-Avi-GS-His8 (CFHR4 Variant B); assay: as above
# Description: as §1
# CFHR3-GS-Avi-GS-His8 = target: T4, CFHR3-GS-Avi-GS-His8; assay: as above
# Description: as §1
# CFHR5-GS-Avi-GS-His8 = target: T5, CFHR5-GS-Avi-GS-His8; assay: as above
# Description: as §1
# [5] = target: T7, native human complement factor H (CFH); assay: indirect ELISA, hybridoma supernatant on CFH captured by biotinylated L20/3 Fab on streptavidin plates
# Description: (§2) MAb production in hybridoma culture supernatants was assayed by indirect enzyme-linked immunosorbent assay (ELISA). Streptavidin coated microtiter plates (Microcoat, Bernried, Germany) were incubated with biotinylated Fab fragment of the MAB<CFH/CFHR1>M-L20/3 monoclonal antibody diluted 1:2000 in incubation buffer (phosphate buffered saline pH 7.3, 0.5% Byco C) for 1 h at room temperature. After washing with washing buffer (0.9% NaCl solution, 0.05% Tween 20) the microtiter plates were incubated for 1 h at room temperature with 100 ng/ml purified recombinant CFHR1 and CFH protein diluted in incubation buffer. The microtiter plates were washed again and hybridoma supernatants were added to the coated well and incubated for 1 h at room temperature. After washing, the bound monoclonal antibodies (MAbs) were detected by a 1 h incubation with goat anti-mouse IgG peroxidase conjugate (Calbiochem, Germany) diluted 1:5000 in incubation buffer followed by substrate reaction with ABTS solution (Roche, Germany) after further washing step. The color change was measured in an ELISA reader at 405/490 nm after 20-30 min. Some CFHR1-specific clones without any crossreactivity against CFH were selected.
# CFHR2-GS-Avi-GS-His8 [6] = target: T1, CFHR2-GS-Avi-GS-His8; assay: sandwich ECLIA, L20/3 Fab-Bi capture + 4.2.74-Ru detection (signal needs both antibodies); sample 100 µg/ml recombinant CFHR2
# [7] = target: T2, recombinant CFHR1-1-5 (tag-less, …); assay: indirect ELISA, hybridoma supernatant on CFHR1 captured by biotinylated L20/3 Fab on streptavidin plates
# Description: as §2
# CFHR2-GS-Avi-GS-His8 [8] = target: T1, CFHR2-GS-Avi-GS-His8; assay: sandwich ECLIA, L20/3 Fab-Bi capture + 4.2.74-Ru detection (signal needs both antibodies); sample 50 µg/ml recombinant CFHR2
# CFHR2-GS-Avi-GS-His8 [9] = target: T1, CFHR2-GS-Avi-GS-His8; assay: sandwich ECLIA, L20/3 Fab-Bi capture + 5.3.23-Ru detection (signal needs both antibodies); sample 50 µg/ml recombinant CFHR2
# CFHR2-GS-Avi-GS-His8 [10] = target: T1, CFHR2-GS-Avi-GS-His8; assay: sandwich ECLIA, L20/3 Fab-Bi capture + 5.3.23-Ru detection (signal needs both antibodies); sample 100 µg/ml recombinant CFHR2
# CFHR2-GS-Avi-GS-His8 [11] = target: T1, CFHR2-GS-Avi-GS-His8; assay: sandwich ECLIA, L20/3 Fab-Bi capture + 4.2.53-Ru detection (signal needs both antibodies); sample 100 µg/ml recombinant CFHR2
# CFHR2-GS-Avi-GS-His8 [12] = target: T1, CFHR2-GS-Avi-GS-His8; assay: sandwich ECLIA, L20/3 Fab-Bi capture + 4.2.53-Ru detection (signal needs both antibodies); sample 50 µg/ml recombinant CFHR2
Kd (CFHR2-GS-Avi-GS-His8 [1]),Kd [2],binding result (CFHL1-GS-Avi-GS-His8),binding result [3],binding result [4],binding result (CFHR3-GS-Avi-GS-His8),binding result (CFHR5-GS-Avi-GS-His8),binding result [5],binding result [7],Binder,other results
19 nM,0.8 nM,no binding,no binding,no binding,no binding,no binding,,,"MAB<CFHR1>M-4.1.3 (antibody, V domains shown, In-house mouse monoclonal IgG; also called MAB<CFHR1>M-4.1.3-Ru) VH: DVQLQESGPGLVKPSQSLSLTCTVTGYSITSEYAWNWIRQFPGNKLEWMAYINSSGKSSYNPSLKSRISVTRDTSKNQFFLQLNSVTTEDTATYYCAREGYGNYPAWFAYWGQGTLVTVSA VL: DIQMTQTTSSLSASLGDRVTISCSASQDINNYLNWYQQKPDGTVKLLIYYTSNLHSGVPSRFSGSGSGTDYSLTISNLEPEDIATYFCQQYSKLPRTFGGGTKLEIKR",
,,,,,,,no binding (tested: 100 ng/ml CFH),binds,"MAB<CFHR1>M-4.2.74 (antibody, V domains shown, In-house mouse monoclonal IgG; also called MAB<CFHR1>M-4.2.74-Ru) VH: DVRLVESGGGLVQPGGSRKLSCAASGFTFSSFGMHWVRQAPEKGLEWVAYISSGSSTIYYADTVKGRFTISRDNPKNTLFLQMTSLRSEDTAMYYCARWGNSYAMDYWGQGTSVTVSS VL: DIVMTQSPSSLTVTAGEKVTMSCKSSQSLLNRGNQKNYLTWYQQKPGQPPKLLIYWASTRESGVPDRFTGSGSGTDFTLTISSVLAEDLAVYYCQIAYSSPFTFGSGTKLEIKR",Measured CFHR1 (CFHR2-GS-Avi-GS-His8 [6]): 0 µg/mL; Measured CFHR1 (CFHR2-GS-Avi-GS-His8 [8]): 0 µg/mL
0.3 nM,0.01 nM,no binding,no binding,no binding,no binding,no binding,,,"MAB<CFHR1>M-5.1.5 (antibody, V domains shown, In the ECLIA sandwich assays the IgG was ruthenylated (Ru-(bpy)2-bpyCO-OSu). The BiaCore results used purified antibody with no label mentioned., It was used ruthenylated (-Ru) in the sandwich ECLIA; also called clone 5.1.5; MAK<CFHR1>M-5.1.5; copies: 2 + 2) VH: EVQLVESGGDLVKPGGSLKLSCAASGFTFSSYDMSWVRQTPDKRLEWVATISSGGSNTYYPDSVKGRFTISRDNAKNTLYLQMSSLKSEDTAMYYCARQGYYYGSSYYAMDYWGQGTSVTVSS VL: QIVLTQSPAIMSASPGEKVTMTCRASSSVSSSYLHWYQQKPGSSPKLWIYITSSLASGVPARFSGSGSGTSYSLTISSVEAEDGATYYCQQYHSSPYTFGSGTKLEIK",
,,,,,,,no binding (tested: 100 ng/ml CFH),binds,"MAB<CFHR1>M-5.3.23 (antibody, V domains shown, In-house mouse monoclonal IgG; also called MAB<CFHR1>M-5.3.23-Ru) VH: EVKLEESGGGLVQPGGSMKLSCDGSGFTFSDAWMGWVRQSPEKGLEWVSEIRNRANNHETHYAESVKGRFTISRDDSKSRVYLQMNSLRAEDTGIYYCNGRYYDSYWFLDVWGAGTTVTVSS VL: NIVMTQTPKFLPVSVGDRVTMTCKASQSVGYNVAWFQQKPGQSPKLLIYYASNRYTGVPDRFTGSGGGTDFTFTISSVQVEDLAVYFCQQHYISPTFGSGTKLEIKR",Measured CFHR1 (CFHR2-GS-Avi-GS-His8 [9]): 0 µg/mL; Measured CFHR1 (CFHR2-GS-Avi-GS-His8 [10]): 0 µg/mL
,,,,,,,no binding (tested: 100 ng/ml CFH),binds,"MAB<CFHR1>M-4.2.53 (antibody, V domains shown, In-house mouse monoclonal IgG; also called MAB<CFHR1>M-4.2.53-Ru) VH: QVQLKESGPGLVAPSQSLSITCTVSGFSLTSYGVHWVRQPPGKGLEWLGVIWAGGNTDYISALMSRLSISKDNSKSQVFLKINRLQTDDTAVYYCARDHYDGYYMEYWGQGTSVTVSP VL: DIQMTQSPSSLSASLGGKVTITCKASQDINKYLAWYQHKPGKGPRLLIHYTFTLQPGIPSRFSGGGSGRDYSFNINNLEPEDIATYYCLQYDNLYTFGGGTKLEIKR",Measured CFHR1 (CFHR2-GS-Avi-GS-His8 [11]): 0.09 µg/mL; Measured CFHR1 (CFHR2-GS-Avi-GS-His8 [12]): 0 µg/mL
